# In patent US20140363428A1:
# What was measured:
# [1] = molecular target: human IgE (human); assay: SPR Biacore T200, 37 C; ratio of KD, pH/Ca dependency
# [2] = molecular target: human IgE (human); assay: SPR Biacore T200, 37 C; ratio of KD, pH dependency
# [3] = molecular target: human IgE (human); assay: SPR Biacore T200, 37 C; pH 5.8, 3 microM Ca
# [4] = molecular target: human IgE (human); assay: SPR Biacore T200, 37 C; pH 5.8, […] Ca
# [5] = molecular target: human IgE (human); assay: SPR Biacore T200, 37 C; pH 7.4, […] Ca
# human IgE (human), sequence (heavy, as listed by the source, chain 1 of 2, other chains not shown): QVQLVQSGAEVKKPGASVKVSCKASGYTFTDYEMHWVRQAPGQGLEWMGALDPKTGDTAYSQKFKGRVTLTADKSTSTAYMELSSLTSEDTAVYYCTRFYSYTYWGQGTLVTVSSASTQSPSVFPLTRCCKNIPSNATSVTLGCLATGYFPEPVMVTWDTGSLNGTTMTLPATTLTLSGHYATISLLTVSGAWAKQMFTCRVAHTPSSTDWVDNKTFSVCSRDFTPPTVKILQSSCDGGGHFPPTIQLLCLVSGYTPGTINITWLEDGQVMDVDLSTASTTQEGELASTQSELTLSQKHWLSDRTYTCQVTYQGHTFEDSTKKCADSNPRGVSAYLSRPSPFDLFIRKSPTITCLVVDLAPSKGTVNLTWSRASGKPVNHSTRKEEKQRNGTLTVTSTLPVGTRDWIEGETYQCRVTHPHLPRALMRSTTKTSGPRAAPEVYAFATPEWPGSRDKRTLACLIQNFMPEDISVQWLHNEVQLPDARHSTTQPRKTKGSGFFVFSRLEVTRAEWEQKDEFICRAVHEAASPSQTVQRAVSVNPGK
substance,measurement,setting,value
Xolair (omalizumab; Novartis) (antibody),"KD (pH 5.8, 3 microM Ca)/KD (pH 7.4, 1.2 mM Ca)",[1],2.9
same,"KD (pH 5.8, 1.2 mM Ca)/KD (pH 7.4, 1.2 mM Ca)",[2],2.3
same,Kd,[3],13 nM
same,koff,[3],0.017 s⁻¹
same,kon,[3],1.4e+06 M⁻¹ s⁻¹
same,Kd,[4],9.9 nM
same,koff,[4],0.024 s⁻¹
same,kon,[4],2.4e+06 M⁻¹ s⁻¹
same,Kd,[5],4.4 nM
same,koff,[5],0.011 s⁻¹
same,kon,[5],2.5e+06 M⁻¹ s⁻¹
